doi:10.1101/641308

Biological target: OcwA (Outer cell-wall protein A), nonaheme cytochrome TherJR_2595 from Thermincola potens JR (Thermincola potens JR)
Test: SEC

stoichiometry N: 2
Substance: OcwA (Outer cell-wall protein A), nonaheme cytochrome TherJR_2595 from Thermincola potens JR (natural protein)
